This note sets out measurements from the RNAGym collection of RNA variant scans (doi:10.1093/molbev/msab373).

First the molecules themselves.
B1: Azoarcus group I ribozyme (parent)
chain: GUGCCUUGCGCCGGGAAACCACGCAAGGGAUGGUGUCAAAUUCGGCGAAACCUAAGCGCCCGCCCGGGCGUAUGGCAACGCCGAGCCAAGCUUCGGCGCCUGCGCCGAUGAAGGUGUAGAGACUAGACGGCACCCACCUAAGGCAAACGCUAUGGUGAAGGCAUAGUCCAGGGAGUGGCGAAAGUCACACAAACCGG

In this series the parent is B1. Kind of series: reverse-splicing fitness (ratio to wild type); higher = more active; in vitro selection; Mg2+ level not given. The method in brief:
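An in vitro group I ribozyme library with randomized positions was T7-transcribed and gel-purified. In triplicate, 10 pmol RNA in EPPS pH 7.5 was reacted with 50 pmoles of a 30-nt RNA substrate for 1 h at 37 °C across several added MgCl2 levels (1–48 mM), then stopped with EDTA. Products were reverse transcribed from a substrate-complementary primer, PCR-amplified and sequenced (HiSeq 4000). Fitness is a variant's read proportion after selection over that before, normalised to wild type.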
In the case of C82U A111C C150A C169U, the reverse-splicing fitness amounted to 0.0106.
To C82U A111C C150A C169G belongs 0.00852; to C82U A111C C150A C169A, 0.00994; to C82U A111C U176G, 0.02.
C82U A111C U176A: the reverse-splicing fitness came out at 0.0847.
C82U A111C U176C: the reverse-splicing fitness is 0.104.
As to C82U A111G, the reverse-splicing fitness was 0.477.
To C82U A111C C150G belongs 0.0163; to C82U A111C C150A, 0.0255; to C82U A111C C150U, 0.123.
For C82U A111G A120C A145C C150U C169U U176C, the reverse-splicing fitness is 0.00942.
As for C82U A111G A120C A145C C150U C169U U176G, the reverse-splicing fitness amounted to 0.00402.
To C82U A111G A120C A145C C150U C169U U176A belongs 0.0144; to C82U A111C C150A C169A U176C, 0.0175.
With C82U A111C C150A C169A U176G the figure was 0.00821.
With C82U A111C C150A C169A U176A, the reverse-splicing fitness amounted to 0.0162.
Regarding C82U A111G A120C A145C C150A U176C, the reverse-splicing fitness was 0.00767.
To C82U A111G A120C A145C C150A U176A belongs 0.00938; to C82U A111G A120C A145C C150A U176G, 0.0038.
To C82U A111C C150U C169G U176A belongs 0.0119.
To C82U A111C C150U C169G U176G belongs 0.00752.
In the case of C82U A111C C150U C169G U176C, the reverse-splicing fitness came to 0.0161.
With C82U A111G A120C A145G C150A C169G U176A the figure was 0.0237; with C82U A111G A120C A145G C150A C169G U176C, 0.0213.
As to C82U A111G A120C A145G C150A C169G U176G, the reverse-splicing fitness was found to be 0.00547.
With C82U A111G A120C A145C C150G C169A U176A the figure was 0.00643; with C82U A111G A120C A145C C150G C169A U176G, 0.00425.
With C82U A111G A120C A145C C150G C169A U176C, the reverse-splicing fitness amounted to 0.00573.
To C82U A111G A120C A145G C150A belongs 0.0129; to C82U A111G A120C A145G C150G, 0.00985; to C82U A111C A145U C169G U176G, 0.00667.
C82U A111C A145U C169G U176C: the reverse-splicing fitness was determined as 0.0162.
To C82U A111C A145U C169U U176G belongs 0.00634.
As for C82U A111C A145U C169U U176A, the reverse-splicing fitness turned out to be 0.0163.
To C82U A111C A145U C169U U176C belongs 0.0143; to C82U A111G A120C A145C C150A C169U U176G, 0.00393.
With C82U A111G A120C A145C C150A C169U U176C the figure was 0.0104; with C82U A111G A120C A145C C150A C169U U176A, 0.0146; with C82U A111G A120C A145C C169A U176C, 0.00404.
With C82U A111G A120C A145C C169A U176G the figure was 0.003; with C82U A111G A120C A145C C169A U176A, 0.00738; with C82U A111C C150U C169A U176C, 0.0134.
As for C82U A111C C150U C169A U176G, the reverse-splicing fitness is 0.008.
To C82U A111C C150U C169A U176A belongs 0.0124.
On to C82U A111C C150G C169G U176G, for which the reverse-splicing fitness is 0.00523.
To C82U A111C C150G C169G U176A belongs 0.00576; to C82U A111C C150G C169G U176C, 0.00488.
With C82U A111G A120C A145C C169A the figure was 0.00548; with C82U A111G A120C A145C C169G, 0.00713; with C82U A111G A120C A145C C169U, 0.0106.
C82U A111G A120C A145C C150A C169A U176C: the reverse-splicing fitness worked out at 0.00523.
As for C82U A111G A120C A145C C150A C169A U176A, the reverse-splicing fitness turned out to be 0.0104.
Turning to C82U A111G A120C A145C C150A C169A U176G, the reverse-splicing fitness was 0.00444.
With C82U A111G A120C A145G C150A C169A U176G, the reverse-splicing fitness was found to be 0.00589.
To C82U A111G A120C A145G C150A C169A U176C belongs 0.018; to C82U A111G A120C A145G C150A C169A U176A, 0.0157.
As to C82U A111C C150U U176A, the reverse-splicing fitness was found to be 0.0385.
For the variant C82U A111C C150U U176G, the reverse-splicing fitness worked out at 0.0125.
As for C82U A111C C150U U176C, the reverse-splicing fitness came to 0.0667.
C82U A111G A120C A145G C150G C169G U176A: the reverse-splicing fitness worked out at 0.00909.
With C82U A111G A120C A145G C150G C169G U176G the figure was 0.00471.
With C82U A111G A120C A145G C150G C169G U176C the figure was 0.00625; with C82U A111G A120C A145G C150A U176C, 0.0246; with C82U A111G A120C A145G C150A U176G, 0.00727.
To C82U A111G A120C A145G C150A U176A belongs 0.0119; to C82U A111C C150G U176C, 0.0147; to C82U A111C C150G U176A, 0.00801.
Take C82U A111C C150G U176G: the reverse-splicing fitness is 0.00363.
For C82U A111G A120C A145G C150G C169A U176G, the reverse-splicing fitness amounted to 0.00661.
Consider C82U A111G A120C A145G C150G C169A U176A, for which the reverse-splicing fitness was found to be 0.0113.
As for C82U A111G A120C A145G C150G C169A U176C, the reverse-splicing fitness worked out at 0.0107.
Regarding C82U A111C C150A C169G U176G, the reverse-splicing fitness came to 0.00835.
Turning to C82U A111C C150A C169G U176A, the reverse-splicing fitness turned out to be 0.0162.
To C82U A111C C150A C169G U176C belongs 0.0236; to C82U A111G A120C A145G, 0.0552.
With C82U A111G A120C A145C the figure was 0.0519; with C82U A111C C169U U176G, 0.00681.
For C82U A111C C169U U176A, the reverse-splicing fitness turned out to be 0.0179.
As to C82U A111C C169U U176C, the reverse-splicing fitness came to 0.0146.
To C82U A111G A120C A145C C150A belongs 0.00803; to C82U A111G A120C A145C C150U, 0.0145.
Regarding C82U A111G A120C A145C C150G, the reverse-splicing fitness amounted to 0.00936.
Regarding C82U A111G A120C A145C C150U C169U, the reverse-splicing fitness came to 0.00927.
